Reference: the NTF2 design screens of Basanta et al. (2020)

Assay: protease stability score; higher = more stable; yeast display proteolysis, trypsin and chymotrypsin;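 further: log10 excess protease needed over predicted unfolded state with 0 meaning unfolded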

Sequence	protease stability score
DEDELQRFAEQVNRVVRQGDPKQAERLFDENARVQIGDKTYHGREDISKMIENQRRRVDHIKVRRIDVQGNELVIHLVYNVNGQEHRNVLVFELHNGKIESAHRTDG	0.959
DDEDEHKFATRMAEILHTGDPDRFQEQVDENVEARYGDKEYHGDEQAKTAFKHVVERVDTVEIKHMDAKNGKVSVHFVLDYDGEKQHVTLNVELHNGKAQRVEFQTQ	0.144
DEEKVAKRFLDNWVRALHHNNEKQFKKMLPPDARVEIGDKTYNGREQVVTFFAEWAKQFDHISLDLKDMRVHNGTMDIDVKVVANDNGKNEHMRVVYVIEIKGDEATFRSATHK	1.87
DETEKAKRFFDEWLKALHRGDPDEVKKLADPNVRFEVGDKEIHGRSNMAKHVTDLRKRADSFSASIDSIDIKGEKVVIDAKLTYNHNGRKTHNKVEFDAKVHNGKIKLKEIIVR	-0.257
DETNKKAVEDYIKALETGDDEMAKRLMDKNATVEIGDKEVTGREEIHEQFKRDVKEIRVRIDRVHVKDQGDKVNLRAREKQTVNGHPISFEFQVEFHAHNGKIKHVEWQIDKDQLRKLKG	0.119
DENQVDQLKELMDALQNNDERKANDLADKNARIRIGDKDVSGRSDMNRMVRELHERIRFTIRTVELHHQGDKVIAKVKVEMDHNGKPNDVTQNAEAKYHNGHLQRLFFDTRS	-0.433
DEKQADRAEKFMRALNEGNEDQATRLFDPNAHVVYGDTEVHGRERIRETIRNLQREMSVRYEVHRIEDRNGHVNLHADVTLQHNGRPARYVLTINVRADNGTIVSLNMRVPEEEKEKMKG	0.15
DEEREEQARKLLRAEEQGDPDRAKQMMDPNARVQVGNKRVHGRSEIATQLEKRKRRARYEIKHVTIRARGNRVDVKINVQVVVNGRPHHFTYIMHLTFQGDKAKNATVRIDEDTLRQVDS	0.171
DERVAHEFVKAINKGDPDRLNELADKNARAEVGDKTFHGREKLEQMWKQWKKMVDHIHIRRVRVHNGHIHVDYVVNIDGQNNQLEIKAVVENGKVQEVKIQVTDEQNQDKLRKKMD	1.25
DEKQLTLLRRIFEALLRNDEDKLKDLLDPNVKVRYGDKDLHGRENVAESIVRTNQEARFHVRRVTFRDHNGQAKVKVDFDQQHNGQPRSARLDVSMQRHNGRVKSISFKVDT	0.649
DEEDVKTLMNLMRNNNFEDLQRMADPNAKVIVGDQTYQGQKEVRTFLHKLKDQIDHLDIKSLDYHNGRVVLDVEATVNGQRFRYVLTVDVHNGHVKSVRFQARSEKDERILKEQAS	1.11
DEHNVHKVKSMIRAMKTGDEETAQRLADPNVHVKIGDHTLQGRSQLKEYVKKLKTQAKFDFREVDAQDHNGHVKVNVDVVARINGKPVRYEVIIHVTFHNGKIKSAEYQVPQDYLDTLES	0.522
DEHDEARKFADKFVKALRDGDETLVNKLVDPNAKFVIGDKDYHGRKAASTLMHEWKNRVDEQEVKIKRISVRNGRANVDVEMVMNVDGHRVHFRVIIYAERRDGRLRVVRIEAR	1.52
DTHDEKHVAQNVVDALRRNDPDQLRRMMDPNVHFEVGDKTIHGREDAARQLKEIKKNVDHFQVDDVTMSNGRVHAIIRVEINGQERRNVVQADVKNGHVKFQRIKDQ	-0.084
DEERVKQVQKKAFEAVMKGNDDEMRKIGKPNVRYEYIDEKNEGQEAVDVVIQLVKKVGAEAKVRRTEVKGDTVRAIFVYNDGDQTVQTKVEVKYEGDKVKEARVELTDEVQKVLHKG	-0.027
DEEALKNVKENLEDGDWDNLAKQADENATWVYGEKRVHGRRDLKKYAEAMKRQIDHWSIRSITTRGNKASVNAEVQVNGHRRSFHIEVEVENGHIKHWNMNFTDPTDERKVLKILE	-0.017
DDKEEAESIAKTLQKILDTGNEEDYLNMADEDVEINIGDKHYRGREEFLKWVQKMTRQVDHLRIDVKSVEVSGDKAHIQYHLELNHDGKNETHKLVMVARKSNGRLTIKKITHQ	1.19
DEEQQKEQKKRLREMIETNNEDELQRQADKDVKVVVGDQTYHGREEARKWVHELKRRVDHVRVDRVEAHGNKISARYRASVNGETQRYNMVIHITNGRIQHMRVTEG	0.894
DEEDLKRLREMHKAVSRGDPRQIQENMDPNVRVQYGDKTIHGREHIASELITKMKHWRLDFKRYHATVTPNRVQVHIDYIERHNGKPHKNKNKAEAEVDNGKIKRYQQSSDG	-0.03
DEEDKADQFLRDLRQALQHNDENRMKELADKDARLNVGDKSVQGREQVVEHLVEKAKQVDDIKINIHTIKVHDGRFKFRATFVFNHNGKEESDEIVLVAHESNGKLKLLEVKEG	1.14
